Test results reported in US20210405060A1 (published 2021).
One block for each molecule: values may come before it.

Legend:
[1] = molecular target: PTP1BS187C lite / C3-SLF conjugate (UniProt P18031); experiment: X-ray crystal structure FKBP12-C3SLF-PTP1BS187C
[2] = molecular target: MCL1S245C lite / C3-SLF conjugate (UniProt Q07820); experiment: X-ray crystal structure MCL1S245C/C3SLF/FKBP52, 3.0 Å
[3] = molecular target: T1, 12xHIS tagged FKBP12 / Compound 1 binary complex (UniProt P62942 1-108, limits assumed); experiment: SPR (Biacore X100), 12xHIS FKBP12 on NTA chip with 1 µM Compound 1, CEP250 as analyte, 1:1 model, 25 °C
T1 construct: Immobilized on an NTA chip, with 1 µM Compound 1 in all buffers; also called immobilized FKBP12-Compound 1 binary complex; not shown: 12xHIS tag
Protocol: Experimental Protocol: Experiments are performed at 25° C. […] The second flow cell is not activated as a reference for non-specific interaction of the analyte to the sensor chip. […] The surface is regenerated between analyte injections with 350 mM EDTA.
Data Fitting: The BiaEvaluation software program is used for data fitting. All data is reference subtracted against both the reference flow cell and a buffer injection. For kinetic analyses, data is locally fit to a 1:1 interaction model.

[4] = molecular target: T2, FKBP12-Compound 2 binary complex (UniProt P62942 1-108); experiment: ITC, 298 K; FKBP12 + Compound 2 in cell, CEP25011.4 in syringe
T2 construct: FKBP12 (10 µM) pre-incubated with 20 µM of the non-covalent ligand Compound 2 in the ITC cell
Protocol: (§1) CEP250 protein stocks are diluted to 50 μM in assay buffer and supplemented with 20 μM compound (1% DMSO final) before being filled into the injection syringe. A control experiment in the absence of compound is also run to determine the heat associated with operational artifacts and the dilution of titrant as it is injected from the syringe into the reaction cell.
(§2) Data Fitting: Data were fitted with the Origin ITC200 software according to the following procedure: [0473] 1) Read raw data [0474] 2) In “mRawITC”: adjust integration peaks and baseline, integrate all peaks [0475] 3) In “Delta H”—data control: remove bad data (injection #1 and other artifacts), subtract straight line (background subtraction) [0476] 4) In “Delta H”—model fitting: select one set of sites model, perform fitting with Levenberg-Marquardt algorithm until Chi Square is not reduced further, finish with “done” (parameters N, Kₐ and ΔH are calculated based on fitting)

[5] = molecular target: T3, FKBP12-Compound 1 binary complex (UniProt P62942 1-108); experiment: ITC, 298 K; FKBP12 + Compound 1b in cell, CEP25011.4 in syringe
T3 construct: FKBP12 (10 µM) pre-incubated with 20 µM of the non-covalent ligand Compound 1 in the ITC cell
Protocol: as §1, §2

Sequence of MCL1S245C lite / C3-SLF conjugate (Q07820 other isoform, or with tags, fused parts or gaps with the stated changes limits assumed): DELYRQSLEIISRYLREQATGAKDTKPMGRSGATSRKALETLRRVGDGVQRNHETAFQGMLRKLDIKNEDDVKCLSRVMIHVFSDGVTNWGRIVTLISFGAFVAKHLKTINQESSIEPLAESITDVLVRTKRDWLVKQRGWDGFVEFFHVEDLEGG
Sequence of PTP1BS187C lite / C3-SLF conjugate (P18031 other isoform, or with tags, fused parts or gaps limits assumed, change not shown): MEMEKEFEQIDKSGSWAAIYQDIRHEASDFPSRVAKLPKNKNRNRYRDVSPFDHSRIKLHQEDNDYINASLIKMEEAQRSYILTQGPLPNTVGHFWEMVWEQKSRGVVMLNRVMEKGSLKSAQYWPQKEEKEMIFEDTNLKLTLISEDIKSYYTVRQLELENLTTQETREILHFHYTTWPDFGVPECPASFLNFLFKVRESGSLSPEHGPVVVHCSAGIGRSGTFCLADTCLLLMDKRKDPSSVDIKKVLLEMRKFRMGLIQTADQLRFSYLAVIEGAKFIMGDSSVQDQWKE
T2 sequence (P62942 whole entry, one chain of several): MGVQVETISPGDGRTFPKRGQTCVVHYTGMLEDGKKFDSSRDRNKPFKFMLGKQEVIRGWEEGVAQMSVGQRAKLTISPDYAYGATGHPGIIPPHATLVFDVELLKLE
T3 sequence (P62942 whole entry, one chain of several): as above
T1 sequence (P62942 whole entry, one chain of several): as above

- buried surface area of PTP1BS187C [1]: 427 Å^2
- total buried surface area of the complex [1]: 1040 Å^2
Molecule: FKBP12 (in-house) (from UniProt P62942 1-108) (enzyme)

- buried surface area contributed by FKBP52 [2]: 804 Å^2
- share of buried surface area contributed by FKBP52 [2]: 60%
- total buried surface area of the complex [2]: 1410 Å^2
B1: FKBP52 (in-house, residues 1-140) (enzyme, UniProt Q02790 1-140, looked up)
chain: MTAEEMKATESGAQSAPLPMEGVDISPKQDEGVLKVIKREGTGTEMPMIGDRVFVHYTGWLLDGTKFDSSLDRKDKFSFDLGKGEVIKAWDIAIATMKVGEVCHITCKPEYAYGSAGSPPKIPPNATLVFEVELFEFKGE

- Kd [3]: 5.4 nM
- Kd [4]: 80 nM
- Kd [5]: 70 nM
B2: CEP25011.4 (residues 2134-2231) (other, UniProt Q9BV73 2134-2231, looked up)
chain: MEEQSLKLDSLEPRLQRELERLQAALRQTEAREIEWREKAQDLALSLAQTKASVSSLQEVAMFLQASVLERDSEQQRLQDELELTRRALEKERLHSPG
notes: range 2134-2231
